Data from patent US20190092832A1 (published 2019).

Biological target: T1, interferon-alpha/beta receptor alpha chain (IFNAR1) (UniProt P17181 28-436, limits assumed)
T1 sequence (looked up): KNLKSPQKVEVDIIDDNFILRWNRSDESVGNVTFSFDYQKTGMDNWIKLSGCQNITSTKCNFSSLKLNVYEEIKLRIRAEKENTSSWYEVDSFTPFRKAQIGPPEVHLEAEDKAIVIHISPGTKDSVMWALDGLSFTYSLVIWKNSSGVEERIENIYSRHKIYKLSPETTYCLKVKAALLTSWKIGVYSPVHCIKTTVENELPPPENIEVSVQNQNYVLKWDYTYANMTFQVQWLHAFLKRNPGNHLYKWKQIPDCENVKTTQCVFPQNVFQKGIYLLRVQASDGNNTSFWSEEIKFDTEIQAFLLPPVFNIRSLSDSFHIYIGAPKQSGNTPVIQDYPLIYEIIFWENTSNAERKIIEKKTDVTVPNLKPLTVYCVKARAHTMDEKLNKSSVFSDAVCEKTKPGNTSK
Assay: intrinsic fluorescence quenching of IFNAR1 titrated with peptide, double-log plot, 298 K
Procedure: […] Protein intrinsic fluorescence experiments were carried out at constant IFNAR1 concentration titrated with different concentrations of IFNβ analog peptide to reach a maximum molar ratio of the IFNβ analog peptide-IFNAR1, and the complex maximum molar ratio of the IFNβ analog peptide-IFNAR1 was 10.
In these experiments, 1.0 ml solution with a fixed concentration of the […] was precisely added into the quartz cell with a 1 cm path length and was manually titrated by successive additions of the IFNβ analog peptide at 5 min time intervals. The fluorescence emission spectra were then measured, and the maximum fluorescence intensity at a wavelength of about 340 nm was used to calculate the binding constant parameters.
Fluorescence quenching data from the interaction of the IFNβ analog peptide and IFNAR1 were analyzed to obtain various binding parameters. The binding constant (Kₐ) and the number of binding (n) were calculated according to the Eq. 1, where F₀ is the fluorescence emission intensities of IFNAR1 in the absence of the IFNβ analog peptide, F is the fluorescence emission intensities of IFNAR1 in the presence of the IFNβ analog peptide, [P] is the IFNβ analog peptide concentration, Kₐ is the binding constant, and n is the apparent molar ratio of [IFNβ analog peptide]/[IFNAR1] complex.

B1: IFNβ analog peptide with SEQ ID No. 2 (peptide)
peptide: MLQNGRDVRKRGFSDTGLRKLGRVNLL
notes: also called MSPEP27
Ka: 3.67e+07 M⁻¹
